# Data published in patent US20100166764A1 (Eli Lilly, published 2010).
# Numbering of substitutions follows the chain as printed. Numbers in names are those of the source.
# T1: mature myostatin (human, murine, rat, chicken, turkey, …, UniProt O08689 268-376 (mouse entry))
# T1 construct: also called growth differentiation factor-8; GDF-8
# T1 sequence: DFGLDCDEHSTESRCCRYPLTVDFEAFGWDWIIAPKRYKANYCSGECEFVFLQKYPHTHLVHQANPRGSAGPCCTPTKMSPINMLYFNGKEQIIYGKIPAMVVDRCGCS
# B1: C12 Fab with the Asn residue in CDRL3 replaced with leucine (Fab, V domains shown)
# VH: QLQLQESGPGLVKPSETLSLTCTVSGFSLRKVGSSVSWIRQPPGKGLEWIGHIYWDDDKRLNPSLRNRVTISVDTSKNQFSLKLSSVTAADTAVYYCARRAITTVIGGGTFDLWGQGTLVTVSS
# VL: DIQMTQSPSSLSASVGDRVTITCSASSSISYMHWYQQKPGKAPKLLIYDTSKLARGVPSRFSGSGSGTDFTLTISSLQPEDFATYYCQQWYLLPLTFGGGTKVEIKR
# notes: Periprep Fab
# B2: C12 Fab with the Asn residue in CDRL3 replaced with proline (Fab, V domains shown)
# VH: B1 VH
# VL: B1 VL with L93P
# notes: Periprep Fab
# B3: C12 Fab with the Asn residue in CDRL3 replaced with tryptophan (Fab, V domains shown)
# VH: B1 VH
# VL: B1 VL with L93W
# notes: Periprep Fab
# B4: C12 Fab with the Asn residue in CDRL3 replaced with valine (Fab, V domains shown)
# VH: B1 VH
# VL: B1 VL with L93V
# notes: Periprep Fab
# B5: C12 Fab with the Asn residue in CDRL3 replaced with phenylalanine (Fab, V domains shown)
# VH: B1 VH
# VL: B1 VL with L93F
# notes: Periprep Fab
# B6: C12 Fab with the Asn residue in CDRL3 replaced with glutamic acid (Fab, V domains shown)
# VH: B1 VH
# VL: B1 VL with L93E
# notes: Periprep Fab
# B7: C12 Fab with the Asn residue in CDRL3 replaced with methionine (Fab, V domains shown)
# VH: B1 VH
# VL: B1 VL with L93M
# notes: Periprep Fab
# B8: C12 Fab with the Asn residue in CDRL3 replaced with glycine (Fab, V domains shown)
# VH: B1 VH
# VL: B1 VL with L93G
# notes: Periprep Fab
# B9: C12 Fab with the Asn residue in CDRL3 replaced with lysine (Fab, V domains shown)
# VH: B1 VH
# VL: B1 VL with L93K
# notes: Periprep Fab
# B10: C12 Fab with the Asn residue in CDRL3 replaced with serine (Fab, V domains shown)
# VH: B1 VH
# VL: B1 VL with L93S
# notes: Periprep Fab
# B11: C12 Fab with the Asn residue in CDRL3 replaced with cysteine (Fab, V domains shown)
# VH: B1 VH
# VL: B1 VL with L93C
# notes: Periprep Fab
# B12: C12 Fab with the Asn residue in CDRL3 replaced with isoleucine (Fab, V domains shown)
# VH: B1 VH
# VL: B1 VL with L93I
# notes: Periprep Fab
# B13: C12 Fab with the Asn residue in CDRL3 replaced with threonine (Fab, V domains shown)
# VH: B1 VH
# VL: B1 VL with L93T
# notes: Periprep Fab
# B14: C12 Fab with the Asn residue in CDRL3 replaced with aspartic acid (Fab, V domains shown)
# VH: B1 VH
# VL: B1 VL with L93D
# notes: Periprep Fab
# B15: C12 Fab with the Asn residue in CDRL3 replaced with glutamine (Fab, V domains shown)
# VH: B1 VH
# VL: B1 VL with L93Q
# notes: Periprep Fab
# B16: C12 Fab with the Asn residue in CDRL3 replaced with alanine (Fab, V domains shown)
# VH: B1 VH
# VL: B1 VL with L93A
# notes: Periprep Fab
# B17: C12 Fab with the Asn residue in CDRL3 replaced with tyrosine (Fab, V domains shown)
# VH: B1 VH
# VL: B1 VL with L93Y
# notes: Periprep Fab
# B18: C12 Fab with the Asn residue in CDRL3 replaced with R (Fab, V domains shown)
# VH: B1 VH
# VL: B1 VL with L93R
# notes: Periprep Fab
# B19: Mab C12 (antibody, V domains shown)
# VH: B1 VH
# VL: B1 VL with L93N
# B20: C12-N93H (antibody, human IgG4 S228P, kappa, V domains shown)
# VH: B1 VH
# VL: B1 VL with L93H
# Biological target: T1, mature myostatin
# Test: ELISA, myostatin coated, periprep Fab titrated, anti-human-kappa-AP
# Description: (§1) ELISA plates are coated with myostatin diluted to 4 ug/ml in carbonate buffer (50 mM NaHCO₃ pH 8.3) and 50 μL added per well. Plates are covered with sealing tape and incubate overnight at 4° C. Thereafter, plates (Greiner U-bottom plates Cat #650061) are washed three times with PBS-T (0.1% Tween-20) using an automatic plate washer. 200 μL of blocking buffer (PBS+1% BSA+0.1% Tween-20) is added to every well and incubated at room temperature for one hour. Plates are washed and 50 μl of sample added per well. Samples are composed of periprep Fabs diluted in PBST/BSA starting at a 1:3 dilution and then serially diluted in half-log steps. Plates are washed and 50 μL of secondary antibody solution (1:2000 goat anti-human-kappa-AP Southern Biotech Cat # 2060-04 in PBST/BSA) is added to every well. Following an additional wash step, 100 μL of AP substrate is added per well and incubates at room temperature for about 10 minutes. The absorbance or OD at 560 nm is read. C12 or 510C2 is included on each ELISA plate as an affinity reference standard. The concentration of Fabs is determined by a quantitative ELISA using an anti-Fd antibody (Sheep anti-Fd Biodesign) to capture protein and goat anti-human-kappa-AP (Southern Biotech) to detect. A purified Fab standard is run on each plate to generate a standard curve for the concentration determinations.
row,binding result,Binder
1,binds,B1
2,binds,B2
3,binds,B3
4,binds,B4
5,binds,B5
6,binds,B6
7,binds,B7
8,binds,B8
9,binds,B9
10,binds,B10
11,binds,B11
12,binds,B12
13,binds,B13
14,binds,B14
15,binds,B15
16,binds,B16
17,binds,B17

# Biological target: T1, mature myostatin
# Test: ELISA on plate-coated myostatin, periprep Fab in serial dilution, detection with goat anti-human-kappa-AP, O.D. against Fab concentration (ng/ml)
# Description: as §1
row,binding result,Binder
1,binds,B18

# Biological target: T1, mature myostatin
# Test: cell-based or functional assay
row,"IC50 in the myostatin/SBE reporter assay (luciferase, HEK293 EBNA cells) [nM]",Binder
1,~9.59,B19
2,~7.03,B20
